These results are taken from patent US5874287.

The target of the assay is G protein alpha subunit of human erythrocyte membranes (human) (UniProt P63092).

The substance “rCTXA1/T1 (CTXA1 truncated at Trp179) (enzyme)” showed an SPECIFIC ACTIVITY FOR HEM G. PROTEIN (ADP-ribosyltransferase, relative) of less than 0.01.
